Experimental data: patent publication US20250121078A1, “PEPTIDE DRUG CONJUGATES AND THEIR USES” (priority 2023, published 2025)
Read-outs that look alike come from different tables or passages of the source. Where a SMILES comes first, the peptide text is derived from it. [ ]: non-standard residue; d: D form. The star is where a group is joined. X2 = COc1cc2cc(c1Cl)N(C)C(=O)C[C@H](OC(=O)[C@H](C)N(C)C(=O)CCSSCCC(=O)NCCOCCOCCn1nnc3c1CC[C@H]1[C@@H](CC3)[C@@H]1COC(=O)*)[C@]1(C)O[C@H]1[C@H](C)[C@@H]1C[C@@](O)(NC(=O)O1)[C@H](OC)/C=C/C=C(\C)C2; Propanoyl(3-SS-DM1) = COc1cc2cc(c1Cl)N(C)C(=O)C[C@H](OC(=O)[C@H](C)N(C)C(=O)CCSSCCC(=O)*)[C@]1(C)O[C@H]1[C@H](C)[C@@H]1C[C@@](O)(NC(=O)O1)[C@H](OC)/C=C/C=C(\C)C2; d(hArg(Et2)) = CCN=C(NCC)NCCCC[C@@H](N)C(=O)O; hArg(Et2) = CCN=C(NCC)NCCCC[C@H](N)C(=O)O; dPhe(4-Cl) = N[C@H](Cc1ccc(Cl)cc1)C(=O)O; d2Nal = N[C@H](Cc1ccc2ccccc2c1)C(=O)O; d3Pal = N[C@H](Cc1cccnc1)C(=O)O

Columns and labels:
[1] = In vivo pharmacokinetic profile, mouse single IV dose; details: for Vss (I/kg) / clearance / AUC(0-t): Mouse IV, dose 5 mg/kg; for clearance / AUC(0-t): in vivo; for AUC(0-t): read-out: AUC(0-24 hr)
Procedure: Pharmacokinetic properties of compounds of the invention were measured following the procedures described in Liu et al., Bioconjugate Chem. 2017, 28, 7, 1878-1892.

[2] = test system: HCC1806 triple negative breast cancer; experiment: In vivo anti-tumor activity in triple-negative breast HCC1806 tumor model; design: species or system immunodeficient nude mice; details: 1 mg/kg to 2.5 mg/kg, every other week, once a week, or twice a week
Procedure: In vivo anti-tumor activity of Compound 16 was evaluated in triple-negative breast HCC1806 tumor model. HCC1806 cells were suspended with RPMI 1640 medium (phenol red free) and Matrigel™ in 1:1 ratio, and implanted subcutaneously (1×10^6 cells/flank) into the left flank of the immunodeficient nude mice. The tumor volume in mm^3 was calculated by the formula: Volume=(length×width^2)/2. Tumor-bearing mice were randomized (n=8 per group) when the average tumor volume was approximately at 210 mm^3 on day 10 after inoculation. Compound 16 was dissolved in DMA, cremorphor and 5% dextrose solution (1:2:27, v/v/v). Tumor-bearing mice were intravenously administered once weekly (qw) or bi-weekly (b2w) with multiple doses of vehicle control (5 mL/kg) and DBPR376 (2.5 mg/kg). Tumor size and body weight of each animal were measured twice weekly during the study period.
Compounds 8, 9, 11, 14, 16, 25, 26, and 27 were evaluated following the procedure described above.

[3] = biological target: T1, LHRHR, also known as GnRHR (Homo sapiens, UniProt P30968); experiment: Radioligand binding assay ([125I]-[D-Trp6]-LHRH displacement)
T1 sequence (P30968 1-328): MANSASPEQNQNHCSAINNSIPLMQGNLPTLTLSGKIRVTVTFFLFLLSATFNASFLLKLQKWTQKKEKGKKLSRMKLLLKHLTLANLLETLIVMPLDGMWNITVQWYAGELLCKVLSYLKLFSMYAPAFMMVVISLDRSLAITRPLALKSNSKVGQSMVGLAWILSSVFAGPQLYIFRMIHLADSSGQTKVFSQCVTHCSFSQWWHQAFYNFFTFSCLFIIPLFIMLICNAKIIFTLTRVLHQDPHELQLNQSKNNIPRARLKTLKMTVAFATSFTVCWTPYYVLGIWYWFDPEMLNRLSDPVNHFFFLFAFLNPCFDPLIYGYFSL
Procedure: An amount of 2 μg of a purified membrane with LHRHR, also known as GnRHR, was incubated with 0.18 nM [125I]-[D-Trp6]-LHRH and compounds of interest in the incubation buffer (50 mM HEPES, pH 7.4, 5 mM MgCl2, 1 mM CaCl2, and 0.2% BSA). The reaction mixtures were incubated for 1 h at 25° C. and then were transferred to a 96-well GF/B filter plate (Millipore Corp., Billerica, MA, USA), which were terminated by manifold filtration and washed with a wash buffer (50 mM HEPES, pH 7.4, and 100 mM NaCl) for six times. The radioactivity bound to the filter was measured by a Topcount® system (PerkinElmer Inc., Waltham, MA, USA). IC50 values were determined by the concentration of a compound required to inhibit 50% of the specific binding of [125I]-[D-Trp6]-LHRH and calculated by nonlinear regression (GraphPad Software, San Diego, CA, USA). The design of these drug conjugates is to actively targeting LHRH-receptor at tumor site and facilitate drug conjugate accumulation in situ. Therefore, selective and strong binding of the synthetic peptide ligand with the receptor is important to allow enrichment of these conjugates, followed by release of the drug payload in the tumor microenvironment.
Compounds of the invention have a binding as low as 0.17 nM.

[4] = purified membrane with LHRHR, 0.18 nM [125I]-[D-Trp6]-LHRH, 1 h at 25° C., read-out: Binding Assay

SMILES | Vss (I/kg) [1] [I/kg] | clearance [1] [mL/min/kg] | AUC(0-t) [1] [ng·h/mL] | inhibition of in vivo tumor growth [2] | IC50 [3] [nM] | further results
COc1cc2cc(c1Cl)N(C)C(=O)C[C@H](OC(=O)[C@H](C)N(C)C(=O)CCSC(=O)c1ccc(CN(CCOCCOCCn3nnc4c3CC[C@@H]3[C@H](CC4)[C@H]3COC(=O)N(CCCC[C@H](NC(=O)[C@H](CC(C)C)NC(=O)[C@@H](Cc3ccc(NC(N)=O)cc3)NC(=O)[C@H](Cc3ccc(NC(=O)[C@@H]4CC(=O)NC(=O)N4)cc3)NC(=O)[C@H](CO)NC(=O)[C@@H](Cc3cccnc3)NC(=O)[C@@H](Cc3ccc(Cl)cc3)NC(=O)[C@@H](Cc3ccc4ccccc4c3)NC(C)=O)C(=O)N3CCC[C@H]3C(=O)N[C@H](C)C(N)=O)C(C)C)C(=O)C3(c4ccc(Cl)cc4)CCCCC3)cc1)[C@]1(C)O[C@H]1[C@H](C)[C@@H]1C[C@@](O)(NC(=O)O1)[C@H](OC)/C=C/C=C(\C)C2 [Compound 9] | 0.2 | 6.7 | 12500 | effectively inhibited |  | AUC coverage ([1]; single intravenous dose): extensive AUC coverage
CCNC(=NCCCC[C@@H](NC(=O)[C@H](CC(C)C)NC(=O)[C@@H](CCCCNC(=O)OC[C@H]1[C@@H]2CCc3nnn(CCOCCOCCN(Cc4ccc(C(=O)SCCC(=O)N(C)[C@@H](C)C(=O)O[C@H]5CC(=O)N(C)c6cc(cc(OC)c6Cl)C/C(C)=C/C=C/[C@@H](OC)[C@@]6(O)C[C@H](OC(=O)N6)[C@@H](C)[C@@H]6O[C@@]56C)cc4)C(=O)C4(c5ccc(Cl)cc5)CCCCC4)c3CC[C@@H]21)NC(=O)[C@H](Cc1ccc(O)cc1)NC(=O)[C@H](CO)NC(=O)[C@@H](Cc1cccnc1)NC(=O)[C@@H](Cc1ccc(Cl)cc1)NC(=O)[C@@H](Cc1ccc2ccccc2c1)NC(C)=O)C(=O)N1CCC[C@H]1C(=O)N[C@H](C)C(N)=O)NCC [Compound 11] | 0.1 | 4 | 21000 | effectively inhibited |  | 
COc1cc2cc(c1Cl)N(C)C(=O)C[C@H](OC(=O)[C@H](C)N(C)C(=O)CCSC(=O)c1ccc(CN(CCOCCOCCn3nnc4c3CC[C@H]3[C@@H](CC4)[C@@H]3COC(=O)NCCCC[C@@H](NC(=O)[C@H](Cc3ccc(O)cc3)NC(=O)[C@H](CO)NC(=O)[C@@H](Cc3cccnc3)NC(=O)[C@@H](Cc3ccc(Cl)cc3)NC(=O)[C@@H](Cc3ccc4ccccc4c3)NC(C)=O)C(=O)N[C@@H](CC(C)C)C(=O)N[C@@H](CCCNC(=N)N)C(=O)N3CCC[C@H]3C(=O)N[C@H](C)C(N)=O)C(=O)C3(c4ccc(Cl)cc4)CCCCC3)cc1)[C@]1(C)O[C@H]1[C@H](C)[C@@H]1C[C@@](O)(NC(=O)O1)[C@H](OC)/C=C/C=C(\C)C2 [Compound 16] | 0.5 | 15.5 | 4860 | effectively inhibited |  | 
COc1cccc2c1C(=O)c1c(O)c3c(c(O)c1C2=O)C[C@@](O)(C(=O)CO)C[C@@H]3O[C@H]1C[C@H](NC(=O)OCc2ccc(NC(=O)[C@H](C)NC(=O)[C@@H](NC(=O)c3ccc(COCCOCCOCCn4nnc5c4CC[C@H]4[C@@H](CC5)[C@@H]4COC(=O)NCCCC[C@@H](NC(=O)[C@H](Cc4ccc(O)cc4)NC(=O)[C@H](CO)NC(=O)[C@@H](Cc4cccnc4)NC(=O)[C@@H](Cc4ccc(Cl)cc4)NC(=O)[C@@H](Cc4ccc5ccccc5c4)NC(C)=O)C(=O)N[C@@H](CC(C)C)C(=O)N[C@@H](CCCNC(=N)N)C(=O)N4CCC[C@H]4C(=O)N[C@H](C)C(N)=O)cc3)C(C)C)cc2)[C@H](O)[C@H](C)O1 [Compound 17] |  |  |  |  |  | IC50 [3, 4]: 0.1 to 1 nM
COc1cc2cc(c1Cl)N(C)C(=O)C[C@H](OC(=O)[C@H](C)N(C)C(=O)CCSC(=O)OCc1ccc(O[Si](OCCCn3nnc4c3CC[C@@H]3[C@H](CC4)[C@H]3COC(=O)N(CCCC[C@H](NC(=O)[C@H](CC(C)C)NC(=O)[C@@H](Cc3ccc(NC(N)=O)cc3)NC(=O)[C@H](Cc3ccc(NC(=O)[C@@H]4CC(=O)NC(=O)N4)cc3)NC(=O)[C@H](CO)NC(=O)[C@@H](Cc3cccnc3)NC(=O)[C@@H](Cc3ccc(Cl)cc3)NC(=O)[C@@H](Cc3ccc4ccccc4c3)NC(C)=O)C(=O)N3CCC[C@H]3C(=O)N[C@H](C)C(N)=O)C(C)C)(C(C)C)C(C)C)cc1)[C@]1(C)O[C@H]1[C@H](C)[C@@H]1C[C@@](O)(NC(=O)O1)[C@H](OC)/C=C/C=C(\C)C2 [Compound 19] |  |  |  |  | 1 to 10 | 
COc1cc2cc(c1Cl)N(C)C(=O)C[C@H](OC(=O)[C@H](C)N(C)C(=O)CCSC(=O)OC[C@H]1[C@@H]3CCc4c(nnn4CCCC[C@@H](NC(=O)[C@H](Cc4ccc(O)cc4)NC(=O)[C@H](CO)NC(=O)[C@@H](Cc4cccnc4)NC(=O)[C@@H](Cc4ccc(Cl)cc4)NC(=O)[C@@H](Cc4ccc5ccccc5c4)NC(C)=O)C(=O)N[C@@H](CC(C)C)C(=O)N[C@@H](CCCNC(=N)N)C(=O)N4CCC[C@H]4C(=O)N[C@H](C)C(N)=O)CC[C@@H]31)[C@]1(C)O[C@H]1C(C)[C@@H]1C[C@@](O)(NC(=O)O1)[C@H](OC)/C=C/C=C(\C)C2 (some centres unmarked) [Compound 20] |  |  |  |  |  | IC50 [3, 4]: 0.1 to 1 nM
CCNC(=NCCCC[C@H](NC(=O)[C@H](CC(C)C)NC(=O)[C@@H](CCCCNC(=O)CCSSCCC(=O)N(C)[C@@H](C)C(=O)O[C@H]1CC(=O)N(C)c2cc(cc(OC)c2Cl)C/C(C)=C/C=C/[C@@H](OC)[C@@]2(O)C[C@H](OC(=O)N2)[C@@H](C)[C@@H]2O[C@@]12C)NC(=O)[C@H](Cc1ccc(O)cc1)NC(=O)[C@H](CO)NC(=O)[C@@H](Cc1cccnc1)NC(=O)[C@@H](Cc1ccc(Cl)cc1)NC(=O)[C@@H](Cc1ccc2ccccc2c1)NC(C)=O)C(=O)N1CCC[C@H]1C(=O)N[C@H](C)C(N)=O)NCC [Compound 23] (Ac-[d2Nal][dPhe(4-Cl)][d3Pal]SY[dK](Propanoyl(3-SS-DM1))L[hArg(Et2)]P[dA]-NH2) |  |  |  |  | 0.1 to 1 | 
COc1cc2cc(c1Cl)N(C)C(=O)C[C@H](OC(=O)[C@H](C)N(C)C(=O)CCSSCCC(=O)NCCCC[C@@H](NC(=O)[C@H](Cc1ccc(O)cc1)NC(=O)[C@H](CO)NC(=O)[C@@H](Cc1cccnc1)NC(=O)[C@@H](Cc1ccc(Cl)cc1)NC(=O)[C@@H](Cc1ccc3ccccc3c1)NC(C)=O)C(=O)N[C@@H](CC(C)C)C(=O)N[C@H](CCCNC(=N)N)C(=O)N1CCC[C@H]1C(=O)N[C@H](C)C(N)=O)[C@]1(C)O[C@H]1[C@H](C)[C@@H]1C[C@@](O)(NC(=O)O1)[C@H](OC)/C=C/C=C(\C)C2 [Compound 24] (Ac-[d2Nal][dPhe(4-Cl)][d3Pal]SY[dK](Propanoyl(3-SS-DM1))L[dR]P[dA]-NH2) |  |  |  |  | 1 to 10 | 
COc1cc2cc(c1Cl)N(C)C(=O)C[C@H](OC(=O)[C@H](C)N(C)C(=O)CCSSCCC(=O)NCCOCCOCCn1nnc3c1CC[C@H]1[C@@H](CC3)[C@@H]1COC(=O)NCCCC[C@@H](NC(=O)[C@H](Cc1ccc(O)cc1)NC(=O)[C@H](CO)NC(=O)[C@@H](Cc1cccnc1)NC(=O)[C@@H](Cc1ccc(Cl)cc1)NC(=O)[C@@H](Cc1ccc3ccccc3c1)NC(C)=O)C(=O)N[C@@H](CC(C)C)C(=O)N[C@@H](CCCNC(=N)N)C(=O)N1CCC[C@H]1C(=O)N[C@H](C)C(N)=O)[C@]1(C)O[C@H]1[C@H](C)[C@@H]1C[C@@](O)(NC(=O)O1)[C@H](OC)/C=C/C=C(\C)C2 [Compound 25] (Ac-[d2Nal][dPhe(4-Cl)][d3Pal]SY[dK](X2)LRP[dA]-NH2) |  |  |  | effectively inhibited |  | 
CCNC(=NCCCC[C@@H](NC(=O)[C@H](CC(C)C)NC(=O)[C@@H](CCCCNC(=O)OC[C@H]1[C@@H]2CCc3nnn(CCOCCOCCNC(=O)CCSSCCC(=O)N(C)[C@@H](C)C(=O)O[C@H]4CC(=O)N(C)c5cc(cc(OC)c5Cl)C/C(C)=C/C=C/[C@@H](OC)[C@@]5(O)C[C@H](OC(=O)N5)[C@@H](C)[C@@H]5O[C@@]45C)c3CC[C@@H]21)NC(=O)[C@H](Cc1ccc(O)cc1)NC(=O)[C@H](CO)NC(=O)[C@@H](Cc1cccnc1)NC(=O)[C@@H](Cc1ccc(Cl)cc1)NC(=O)[C@@H](Cc1ccc2ccccc2c1)NC(C)=O)C(=O)N1CCC[C@H]1C(=O)N[C@H](C)C(N)=O)NCC [Compound 26] (Ac-[d2Nal][dPhe(4-Cl)][d3Pal]SY[dK](X2)L[d(hArg(Et2))]P[dA]-NH2) |  |  |  | effectively inhibited |  | 
